According to paper PMC11851464, “Development of a Spectrophotometric Assay for the Cysteine Desulfurase from Staphylococcus aureus” (Antibiotics, 2025):

B1: cysteine desulfurase SufS (BsSufS) (Bacillus subtilis subsp. subtilis str. 168) (protein)
chain: MNITDIREQFPILHQQVNGHDLVYLDSAATSQKPRAVIETLDKYYNQYNSNVHRGVHTLGTRATDGYEGAREKVRKFINAKSMAEIIFTKGTTTSLNMVALSYARANLKPGDEVVITYMEHHANIIPWQQAVKATGATLKYIPLQEDGTISLEDVRETVTSNTKIVAVSHVSNVLGTVNPIKEMAKIAHDNGAVIVVDGAQSTPHMKIDVQDLDCDFFALSSHKMCGPTGVGVLYGKKALLENMEPAEFGGEMIDFVGLYESTWKELPWKFEAGTPIIAGAIGLGAAIDFLEEIGLDEISRHEHKLAAYALERFRQLDGVTVYGPEERAGLVTFNLDDVHPHDVATVLDAEGIAVRAGHHCAQPLMKWLDVTATARASFYLYNTEEEIDKLVEALQKTKEYFTNVF
B2: cysteine desulfurase SufS (SaSufS) (Staphylococcus aureus subsp. aureus USA300) (protein)
chain: MAEHSFDVNEVIKDFPILDQKVNGKRLAYLDSTATSQTPVQVLNVLEDYYKRYNSNVHRGVHTLGSLATDGYENARETVRRFINAKYFEEIIFTRGTTASINLVAHSYGDANVEEGDEIVVTEMEHHANIVPWQQLAKRKNATLKFIPMTADGELNIEDIKQTINDKTKIVAIAHISNVLGTINDVKTIAEIAHQHGAIISVDGAQAAPHMKLDMQEMNADFYSFSGHKMLGPTGIGVLFGKRELLQKMEPIEFGGDMIDFVSKYDATWADLPTKFEAGTPLIAQAIGLAEAIRYLERIGFDAIHKYEQELTIYAYEQMSAIEGIEIYGPPKDRRAGVITFNLQDVHPHDVATAVDTEGVAVRAGHHCAQPLMKWLNVSSTARASFYIYNTKEDVDQLINALKQTKEFFSYEF

Assays:
[1] = substrate: N[C@@H](CS)C(=O)O; assay: Michaelis–Menten kinetics, Ala-NDA assay; type: biochemical, Bacillus subtilis; conditions: pyridoxal-5′-phosphate (PLP)
[2] = substrate: N[C@@H](CS)C(=O)O; assay: purified protein; type: biochemical, Staphylococcus aureus; conditions: pyridoxal-5′-phosphate (PLP) Cys displaces Lys250 and binds PLP to form Cys-aldimine; catalytic Cys389

Protein	Km [1]	kcat [1]	kcat/Km [1]	Km [2]	kcat [2]	kcat/Km [2]
B1	440 ± 190 µM	0.0817 ± 0.0117 s⁻¹	185 ± 107 M⁻¹ s⁻¹	–	–	–
B2	–	–	–	600 ± 170 µM	0.0683 ± 0.00833 s⁻¹	113 ± 45 M⁻¹ s⁻¹
